Experimental data from patent US12331106B2, “Anti-angiopoietin-2 antibodies that induce Tie2 activation” (Institute for Basic Science, priority 2018, dated 2025).
Changes are numbered by the printed parent chain. Each block holds one molecule with its values, some of them ahead of it.

Target: T1, hAng2 (Homo sapiens, UniProt O15123)
T1 sequence (O15123 19-496): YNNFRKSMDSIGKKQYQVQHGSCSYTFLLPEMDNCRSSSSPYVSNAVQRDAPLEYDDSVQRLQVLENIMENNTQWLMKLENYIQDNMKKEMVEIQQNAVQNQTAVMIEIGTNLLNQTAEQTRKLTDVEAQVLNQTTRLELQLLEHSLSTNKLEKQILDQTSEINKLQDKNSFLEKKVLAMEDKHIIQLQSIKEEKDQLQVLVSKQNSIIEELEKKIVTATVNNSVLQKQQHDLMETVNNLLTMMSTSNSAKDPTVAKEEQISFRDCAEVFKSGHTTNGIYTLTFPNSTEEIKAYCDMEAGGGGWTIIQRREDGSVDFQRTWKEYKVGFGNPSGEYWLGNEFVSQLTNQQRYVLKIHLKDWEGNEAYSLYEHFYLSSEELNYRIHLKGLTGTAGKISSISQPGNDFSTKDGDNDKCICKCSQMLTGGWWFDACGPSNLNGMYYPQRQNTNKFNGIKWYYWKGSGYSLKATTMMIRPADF
Assay: OCTET affinity of humanized anti-Ang2 antibodies against hAng2
Type: binding
Conditions: for affinities to hAng2 antigen: statement in words
Method: The affinity of humanized anti-Ang2 antibody against hAng2 was measured using OCTET® system (ForteBio). Specifically, buffer and samples were measured in total 200 μl/well using Black 96-well plates (96 well F-type black plates, Greiner). The biosensor used for affinity measurements was hydrated for 10 min before measurement with AR2G tip (ForteBio OCTET®). After the hydration, humanized anti-Ang2 antibody was diluted in 10 mM sodium acetate, pH 6.0 buffer at a concentration of 10 μg/ml, fixed on AR2G biosensor, and blocked with 1M ethanolamine. The recombinant hAng2 was diluted to 50, 25, 12.5, 6.25, 3.125, and 0 nM with 1× kinetic buffer, and subjected to association for 300 sec and dissociation for 900 sec. For affinity measurement (KD), association rate (K-on) and dissociation rate (K-off) were analyzed by binding curve (global) and fitted to 1:1 binding model using OCTET® data analysis v9.0.0.10 program.
The affinities of humanized 2C8 antibodies to hAng2 were in Table 15.

[1] = OCTET, antibody fixed on AR2G biosensor, hAng2 50-0 nM, 1:1 binding model

B3: 2C8H52: humanized anti-Ang2 antibody from mouse 2C8; VH SEQ ID NO: 91, VL SEQ ID NO: 92 (antibody, V domains shown)
VH: QVQLVQSGAEVKKPGASVKVSCKASGYSFTSYWMHWVKQAPGQGLEWIGMIDPSDSETRLNQKFKDKASLTVDTSTSTVYMELSSLRSEDTAVYYCARRFYYGSDWYFDVWGQGTLVTVSS
VL: DIQLTQSPSFLSASVGDRVSITCKASQDVGTAVAWYQQKPGKAPKLLIYWASTRHTGVPDRFSGSGSGTEFTLTISSLQPEDFATYYCQQYSSYPLTFGQGTKVEIK
modifications: VH; VL
Kdis [1]: 1.99e-05 s⁻¹ | Kon [1]: 81900 M⁻¹ s⁻¹

B4: 2C8H51: humanized anti-Ang2 antibody from mouse 2C8; VH SEQ ID NO: 71, VL SEQ ID NO: 72 (antibody, V domains shown)
VH: B3 VH
VL: B3 VL with S20T, D60S
modifications: VH; VL
Kdis [1]: 9.61e-06 s⁻¹ | Kon [1]: 70200 M⁻¹ s⁻¹

B5: 2C8H53: humanized anti-Ang2 antibody from mouse 2C8; VH SEQ ID NO: 111, VL SEQ ID NO: 112 (antibody, V domains shown)
VH: B3 VH
VL: B3 VL with T85D, Y87F
modifications: VH; VL
Kdis [1]: 3.11e-05 s⁻¹ | Kon [1]: 80900 M⁻¹ s⁻¹

B6: 2C8H23: humanized anti-Ang2 antibody from mouse 2C8; VH SEQ ID NO: 99, VL SEQ ID NO: 100 (antibody, V domains shown)
VH: B3 VH with K38R, K67R, A68V, S69T, L70M, V72R
VL: B3 VL with T85D, Y87F
modifications: VH; VL
Kdis [1]: 2.28e-05 s⁻¹ | Kon [1]: 79500 M⁻¹ s⁻¹

B7: 2C8H21: humanized anti-Ang2 antibody from mouse 2C8; VH SEQ ID NO: 59, VL SEQ ID NO: 60 (antibody, V domains shown)
VH: B3 VH with K38R, K67R, A68V, S69T, L70M, V72R
VL: B3 VL with S20T, D60S
modifications: VH; VL
Kdis [1]: 1.5e-05 s⁻¹ | Kon [1]: 111000 M⁻¹ s⁻¹

B8: 2C8H22: humanized anti-Ang2 antibody from mouse 2C8; VH SEQ ID NO: 79, VL SEQ ID NO: 80 (antibody, V domains shown)
VH: B3 VH with K38R, K67R, A68V, S69T, L70M, V72R
VL: B3 VL
modifications: VH; VL
Kdis [1]: 6.84e-06 s⁻¹ | Kon [1]: 59600 M⁻¹ s⁻¹

B10: 2C8H13: humanized anti-Ang2 antibody from mouse 2C8; VH SEQ ID NO: 95, VL SEQ ID NO: 96 (antibody, V domains shown)
VH: B3 VH with S28T, K38R, I48M, K67R, A68V, S69T, L70M, V72R
VL: B3 VL with T85D, Y87F
modifications: VH; VL
Kdis [1]: 2.77e-05 s⁻¹ | Kon [1]: 113000 M⁻¹ s⁻¹

B12: 2C8H33: humanized anti-Ang2 antibody from mouse 2C8; VH SEQ ID NO: 103, VL SEQ ID NO: 104 (antibody, V domains shown)
VH: B3 VH with K38R, L70M, V72R
VL: B3 VL with T85D, Y87F
modifications: VH; VL
Kdis [1]: 3.99e-06 s⁻¹ | Kon [1]: 89600 M⁻¹ s⁻¹

B14: 4B9H11G4: human IgG4 class antibody of 4B9H11 (antibody, V domains shown)
VH: QVQLVESGGGLVKPGGSLRLSCAASGFTFSDYYMYWIRQAPGKGLEWVSTISVGGSFTYYPDSVKGRFTISRDNAKNSLYLQMNSLRAEDTAVYYCARDWGLRPWFVYWGQGTLVTVSS
VL: B3 VL with L4M, F10S, S20T, G30S, D60S, E70D, Y91H, S92Y, Y94T, L96P
Kdis (IgG4 class antibodies): 3.46e-05 s⁻¹ | Kon (IgG4 class antibodies): 432000 M⁻¹ s⁻¹ | affinities to hAng2 antigen (IgG4 class antibodies): subnanomolar high affinities

B16: 2C8H43: humanized anti-Ang2 antibody from mouse 2C8; VH SEQ ID NO: 107, VL SEQ ID NO: 108 (antibody, V domains shown)
VH: B3 VH with L70M, V72R
VL: B3 VL with T85D, Y87F
modifications: VH; VL
Kdis [1]: 2.65e-05 s⁻¹ | Kon [1]: 71100 M⁻¹ s⁻¹

Now from value to molecule:

Kdis (IgG4 class antibodies): 4.35e-06 s⁻¹ | Kon (IgG4 class antibodies): 415000 M⁻¹ s⁻¹ | affinities to hAng2 antigen (IgG4 class antibodies): subnanomolar high affinities
B1: 2C8H11G4: human IgG4 class antibody of 2C8H11 (antibody, V domains shown)
VH: B3 VH with S28T, K38R, I48M, K67R, A68V, S69T, L70M, V72R
VL: B3 VL with S20T, D60S

Kdis [1]: 1.67e-05 s⁻¹ | Kon [1]: 67000 M⁻¹ s⁻¹
B2: 2C8H41: humanized anti-Ang2 antibody from mouse 2C8; VH SEQ ID NO: 67, VL SEQ ID NO: 68 (antibody, V domains shown)
VH: B3 VH with L70M, V72R
VL: B3 VL with S20T, D60S
modifications: VH; VL

Kdis [1]: 2.21e-05 s⁻¹ | Kon [1]: 83200 M⁻¹ s⁻¹
B9: 2C8H31: humanized anti-Ang2 antibody from mouse 2C8; VH SEQ ID NO: 63, VL SEQ ID NO: 64 (antibody, V domains shown)
VH: B3 VH with K38R, L70M, V72R
VL: B3 VL with S20T, D60S
modifications: VH; VL

Kdis [1]: 1.49e-05 s⁻¹ | Kon [1]: 75700 M⁻¹ s⁻¹
B11: 2C8H32: humanized anti-Ang2 antibody from mouse 2C8; VH SEQ ID NO: 83, VL SEQ ID NO: 84 (antibody, V domains shown)
VH: B3 VH with K38R, L70M, V72R
VL: B3 VL
modifications: VH; VL

Kdis [1]: 1.33e-05 s⁻¹ | Kon [1]: 95200 M⁻¹ s⁻¹
B13: 2C8H12: humanized anti-Ang2 antibody from mouse 2C8; VH SEQ ID NO: 75, VL SEQ ID NO: 76 (antibody, V domains shown)
VH: B3 VH with S28T, K38R, I48M, K67R, A68V, S69T, L70M, V72R
VL: B3 VL
modifications: VH; VL

Kdis [1]: 3.07e-05 s⁻¹ | Kon [1]: 80600 M⁻¹ s⁻¹
B15: 2C8H42: humanized anti-Ang2 antibody from mouse 2C8; VH SEQ ID NO: 87, VL SEQ ID NO: 88 (antibody, V domains shown)
VH: B3 VH with L70M, V72R
VL: B3 VL
modifications: VH; VL
